Experiment [1] addresses endogenous bovine LRP6 (bovine). Put plainly: cell-based or functional assay.
Another experiment deals with endogenous human LRP6 (human, UniProt O75581 20-1613). The experiment in a line: cell-based or functional assay.
Another experiment deals with T1, endogenous mouse LRP6 (mouse, UniProt O88572 20-1613).
T1 construct: whole, on cells; Tested as total cell lysate (Western blot) and in mouse retinal cryosections (immunostaining); also called LRP6 (mouse)
Put plainly: Western blot, total cell lysates. The procedure: (§1) A: HEK-293T cells were separately transfected with plasmids expressing LRP5-Flag and LRP6-Myc, with an empty vector as control. Forty-eight hours post-transfection, total cell lysates (50 μg) were applied for Western blot analysis using Anti-LRP6-1 and an anti-Flag antibody (M2). B: The ability of Anti-LRP6-1 to recognize endogenous LRP6 in different species. Total cell lysates (50 μg) from each cell line were applied for Western blot analysis using Anti-LRP6-1. C: Conditioned media containing LDLRN-Myc, LRP5N-Myc and LRP6N-Myc, and purified recombinant peptides of VLDLR-N-His, LRP6E1E2-His and LRP6E3E4-His were loaded for Western blot analysis using Anti-LRP6-1, anti-His and anti-Myc antibodies. D: Immuno-localization of LRP6 in the retinal cryosections. FITC-labeled Anti-LRP6-1 was used to determine the cellular localization of LRP6 in the retinas of rats (D1-D6) and mice (D7-D12). Non-specific mouse IgG was labeled with FITC and used as a negative control (D1, D4, D7, D10). The sections were stained with FITC-Anti-LRP6-1 (D2, D5, D8, D11). FITC-Anti-LRP6-1 pre-absorbed with 10 μg/ml purified LRP6E1E2-His antigen was used for staining to confirm the specificity of the immunosignals of LRP6 (D3, D6, D9, D12). […]
In general terms: Immunoblotting shows a protein as a band on a membrane.

Another experiment addresses T2, VLDLR-N-His (human, UniProt P98155 28-797, limits assumed).
T2 construct: domain: VLDLR-N; also called very low-density lipoprotein receptor; not shown: 6x histidine tag
The experiment in a line: Western blot, recombinant VLDLR-N-His. The procedure: (§2) FIG. 15 illustrates specificity of Anti-LRP6-1 on LRP6 ectodomain. A: HEK-293T cells were separately transfected with plasmids expressing LRP5-Flag and LRP6-Myc, with an empty vector as control. Forty-eight hours post-transfection, total cell lysates (50 μg) were applied for Western blot analysis using Anti-LRP6-1 and an anti-Flag antibody (M2). B: The ability of Anti-LRP6-1 to recognize endogenous LRP6 in different species. Total cell lysates (50 μg) from each cell line were applied for Western blot analysis using Anti-LRP6-1. C: Conditioned media containing LDLRN-Myc, LRP5N-Myc and LRP6N-Myc, and purified recombinant peptides of VLDLR-N-His, LRP6E1E2-His and LRP6E3E4-His were loaded for Western blot analysis using Anti-LRP6-1, anti-His and anti-Myc antibodies. D: Immuno-localization of LRP6 in the retinal cryosections. FITC-labeled Anti-LRP6-1 was used to determine the cellular localization of LRP6 in the retinas of rats (D1-D6) and mice (D7-D12). Non-specific mouse IgG was labeled with FITC and used as a negative control (D1, D4, D7, D10). The sections were stained with FITC-Anti-LRP6-1 (D2, D5, D8, D11). FITC-Anti-LRP6-1 pre-absorbed with 10 μg/ml purified LRP6E1E2-His antigen was used for staining to confirm the specificity of the immunosignals of LRP6 (D3, D6, D9, D12).

For a further experiment, the target named is T3, LRP6E3E4-His (human, UniProt O75581 631-1244).
T3 construct: Expressed in E. coli BL21(DE3); Only its E3E4 part stood in the assay; also called E3E4 domain of LRP6; not shown: His tag from pET28b+
T3 sequence: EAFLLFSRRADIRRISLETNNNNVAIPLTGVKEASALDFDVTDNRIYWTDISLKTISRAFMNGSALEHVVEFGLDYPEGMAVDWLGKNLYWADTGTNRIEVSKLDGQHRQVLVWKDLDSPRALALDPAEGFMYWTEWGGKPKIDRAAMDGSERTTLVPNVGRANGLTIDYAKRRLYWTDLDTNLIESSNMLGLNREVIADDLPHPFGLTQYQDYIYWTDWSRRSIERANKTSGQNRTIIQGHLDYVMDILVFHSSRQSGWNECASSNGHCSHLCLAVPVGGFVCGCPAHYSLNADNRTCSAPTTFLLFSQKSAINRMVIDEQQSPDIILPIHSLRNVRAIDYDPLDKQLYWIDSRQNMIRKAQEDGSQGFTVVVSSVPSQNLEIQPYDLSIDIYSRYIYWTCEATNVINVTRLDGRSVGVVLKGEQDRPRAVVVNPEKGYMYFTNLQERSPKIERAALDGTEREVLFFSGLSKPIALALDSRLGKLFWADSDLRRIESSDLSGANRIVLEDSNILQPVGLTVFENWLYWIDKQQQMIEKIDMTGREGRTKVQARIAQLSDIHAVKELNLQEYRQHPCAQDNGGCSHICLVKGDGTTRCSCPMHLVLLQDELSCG
The experiment in a line: Western blot, purified recombinant fragment. The procedure: as §2

Experiment [2] deals with T4, LRP5-Flag (human full-length LRP5) (human, UniProt O75197 32-1615).
T4 construct: Tested as total lysate of transfected HEK-293T cells in a Western blot; not shown: Flag tag
T4 sequence (O75197 32-1615 limits assumed): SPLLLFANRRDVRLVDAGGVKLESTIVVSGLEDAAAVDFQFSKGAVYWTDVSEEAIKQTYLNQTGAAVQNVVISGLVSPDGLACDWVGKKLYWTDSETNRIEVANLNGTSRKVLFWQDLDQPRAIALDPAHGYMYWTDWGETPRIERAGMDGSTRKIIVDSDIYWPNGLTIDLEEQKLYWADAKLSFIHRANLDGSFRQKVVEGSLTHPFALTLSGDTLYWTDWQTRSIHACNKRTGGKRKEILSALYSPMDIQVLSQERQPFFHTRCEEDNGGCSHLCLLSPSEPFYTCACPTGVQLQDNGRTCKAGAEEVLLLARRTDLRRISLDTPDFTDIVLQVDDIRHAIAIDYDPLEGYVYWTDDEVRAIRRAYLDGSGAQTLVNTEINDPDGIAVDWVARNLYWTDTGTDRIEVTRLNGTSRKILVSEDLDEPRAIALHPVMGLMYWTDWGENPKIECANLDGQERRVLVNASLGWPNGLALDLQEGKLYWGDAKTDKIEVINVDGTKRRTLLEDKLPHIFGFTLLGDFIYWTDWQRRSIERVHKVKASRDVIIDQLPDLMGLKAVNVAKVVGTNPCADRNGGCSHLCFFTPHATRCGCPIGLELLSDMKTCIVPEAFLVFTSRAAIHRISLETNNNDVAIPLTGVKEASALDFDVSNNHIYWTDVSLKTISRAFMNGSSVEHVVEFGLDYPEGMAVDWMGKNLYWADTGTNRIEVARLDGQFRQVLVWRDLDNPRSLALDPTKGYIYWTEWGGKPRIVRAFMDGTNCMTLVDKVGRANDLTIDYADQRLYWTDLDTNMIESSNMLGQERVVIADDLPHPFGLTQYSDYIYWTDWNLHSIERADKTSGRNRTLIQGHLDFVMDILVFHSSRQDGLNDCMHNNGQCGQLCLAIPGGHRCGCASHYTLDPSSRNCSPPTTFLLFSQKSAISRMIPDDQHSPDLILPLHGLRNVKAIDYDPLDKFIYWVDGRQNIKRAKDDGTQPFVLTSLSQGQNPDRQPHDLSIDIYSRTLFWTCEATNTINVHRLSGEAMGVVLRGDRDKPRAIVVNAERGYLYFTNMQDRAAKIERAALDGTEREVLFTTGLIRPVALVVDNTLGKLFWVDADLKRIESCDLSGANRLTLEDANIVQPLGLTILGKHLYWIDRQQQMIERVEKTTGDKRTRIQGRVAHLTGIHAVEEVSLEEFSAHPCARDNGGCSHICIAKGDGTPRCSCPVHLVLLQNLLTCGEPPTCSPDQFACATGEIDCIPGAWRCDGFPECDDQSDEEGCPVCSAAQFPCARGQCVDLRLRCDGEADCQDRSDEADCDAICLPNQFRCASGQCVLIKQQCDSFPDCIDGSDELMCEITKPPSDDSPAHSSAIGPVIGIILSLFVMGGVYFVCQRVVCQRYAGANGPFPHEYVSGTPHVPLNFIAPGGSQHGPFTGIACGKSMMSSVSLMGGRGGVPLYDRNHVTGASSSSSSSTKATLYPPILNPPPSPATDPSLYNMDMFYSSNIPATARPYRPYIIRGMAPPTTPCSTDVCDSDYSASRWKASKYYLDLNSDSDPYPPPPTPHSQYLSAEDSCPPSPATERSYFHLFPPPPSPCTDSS
The experiment in a line: Western blot, total lysates (50 ug) of transfected HEK-293T cells. The procedure:
as §1

Chain of endogenous human LRP6 (O75581 20-1613 limits assumed): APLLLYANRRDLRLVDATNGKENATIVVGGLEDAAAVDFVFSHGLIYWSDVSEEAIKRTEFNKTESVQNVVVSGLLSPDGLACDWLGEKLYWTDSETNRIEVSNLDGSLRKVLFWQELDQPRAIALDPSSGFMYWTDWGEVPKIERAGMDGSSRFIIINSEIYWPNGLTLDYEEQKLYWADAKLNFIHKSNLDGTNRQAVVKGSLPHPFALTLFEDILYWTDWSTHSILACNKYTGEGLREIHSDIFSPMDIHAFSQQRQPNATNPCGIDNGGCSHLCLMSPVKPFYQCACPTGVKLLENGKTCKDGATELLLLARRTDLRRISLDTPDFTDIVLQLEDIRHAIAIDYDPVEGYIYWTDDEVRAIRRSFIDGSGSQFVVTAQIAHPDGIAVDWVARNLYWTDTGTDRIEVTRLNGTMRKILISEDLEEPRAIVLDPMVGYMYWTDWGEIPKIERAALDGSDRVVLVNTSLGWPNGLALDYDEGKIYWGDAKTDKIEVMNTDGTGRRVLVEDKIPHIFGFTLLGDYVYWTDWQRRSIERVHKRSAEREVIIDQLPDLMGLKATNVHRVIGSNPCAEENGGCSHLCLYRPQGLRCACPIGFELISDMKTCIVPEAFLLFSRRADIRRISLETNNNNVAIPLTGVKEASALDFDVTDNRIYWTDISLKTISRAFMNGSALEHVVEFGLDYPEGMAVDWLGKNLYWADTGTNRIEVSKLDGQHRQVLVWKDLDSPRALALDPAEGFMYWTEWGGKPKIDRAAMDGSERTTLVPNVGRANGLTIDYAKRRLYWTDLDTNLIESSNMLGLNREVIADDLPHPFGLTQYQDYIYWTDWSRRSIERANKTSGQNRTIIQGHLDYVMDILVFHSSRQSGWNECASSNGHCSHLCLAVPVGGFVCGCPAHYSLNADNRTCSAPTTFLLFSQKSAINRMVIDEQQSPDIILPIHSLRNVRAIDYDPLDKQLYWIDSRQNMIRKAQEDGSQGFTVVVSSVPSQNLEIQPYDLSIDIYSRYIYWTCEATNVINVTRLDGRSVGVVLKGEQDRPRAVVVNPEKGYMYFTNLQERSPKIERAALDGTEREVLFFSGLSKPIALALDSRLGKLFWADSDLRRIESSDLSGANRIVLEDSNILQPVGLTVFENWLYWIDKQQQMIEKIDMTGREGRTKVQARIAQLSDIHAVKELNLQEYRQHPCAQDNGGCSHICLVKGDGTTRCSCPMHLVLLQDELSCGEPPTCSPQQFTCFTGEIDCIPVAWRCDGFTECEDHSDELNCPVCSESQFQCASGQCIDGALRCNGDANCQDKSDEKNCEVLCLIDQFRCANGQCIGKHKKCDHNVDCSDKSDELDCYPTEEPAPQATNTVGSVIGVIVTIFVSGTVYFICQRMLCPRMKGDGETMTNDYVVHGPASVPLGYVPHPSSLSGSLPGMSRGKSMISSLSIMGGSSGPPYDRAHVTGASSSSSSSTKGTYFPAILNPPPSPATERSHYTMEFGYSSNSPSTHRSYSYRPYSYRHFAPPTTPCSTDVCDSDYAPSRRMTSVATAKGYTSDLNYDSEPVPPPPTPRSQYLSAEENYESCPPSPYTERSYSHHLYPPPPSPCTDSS
T1 sequence (O88572 20-1613): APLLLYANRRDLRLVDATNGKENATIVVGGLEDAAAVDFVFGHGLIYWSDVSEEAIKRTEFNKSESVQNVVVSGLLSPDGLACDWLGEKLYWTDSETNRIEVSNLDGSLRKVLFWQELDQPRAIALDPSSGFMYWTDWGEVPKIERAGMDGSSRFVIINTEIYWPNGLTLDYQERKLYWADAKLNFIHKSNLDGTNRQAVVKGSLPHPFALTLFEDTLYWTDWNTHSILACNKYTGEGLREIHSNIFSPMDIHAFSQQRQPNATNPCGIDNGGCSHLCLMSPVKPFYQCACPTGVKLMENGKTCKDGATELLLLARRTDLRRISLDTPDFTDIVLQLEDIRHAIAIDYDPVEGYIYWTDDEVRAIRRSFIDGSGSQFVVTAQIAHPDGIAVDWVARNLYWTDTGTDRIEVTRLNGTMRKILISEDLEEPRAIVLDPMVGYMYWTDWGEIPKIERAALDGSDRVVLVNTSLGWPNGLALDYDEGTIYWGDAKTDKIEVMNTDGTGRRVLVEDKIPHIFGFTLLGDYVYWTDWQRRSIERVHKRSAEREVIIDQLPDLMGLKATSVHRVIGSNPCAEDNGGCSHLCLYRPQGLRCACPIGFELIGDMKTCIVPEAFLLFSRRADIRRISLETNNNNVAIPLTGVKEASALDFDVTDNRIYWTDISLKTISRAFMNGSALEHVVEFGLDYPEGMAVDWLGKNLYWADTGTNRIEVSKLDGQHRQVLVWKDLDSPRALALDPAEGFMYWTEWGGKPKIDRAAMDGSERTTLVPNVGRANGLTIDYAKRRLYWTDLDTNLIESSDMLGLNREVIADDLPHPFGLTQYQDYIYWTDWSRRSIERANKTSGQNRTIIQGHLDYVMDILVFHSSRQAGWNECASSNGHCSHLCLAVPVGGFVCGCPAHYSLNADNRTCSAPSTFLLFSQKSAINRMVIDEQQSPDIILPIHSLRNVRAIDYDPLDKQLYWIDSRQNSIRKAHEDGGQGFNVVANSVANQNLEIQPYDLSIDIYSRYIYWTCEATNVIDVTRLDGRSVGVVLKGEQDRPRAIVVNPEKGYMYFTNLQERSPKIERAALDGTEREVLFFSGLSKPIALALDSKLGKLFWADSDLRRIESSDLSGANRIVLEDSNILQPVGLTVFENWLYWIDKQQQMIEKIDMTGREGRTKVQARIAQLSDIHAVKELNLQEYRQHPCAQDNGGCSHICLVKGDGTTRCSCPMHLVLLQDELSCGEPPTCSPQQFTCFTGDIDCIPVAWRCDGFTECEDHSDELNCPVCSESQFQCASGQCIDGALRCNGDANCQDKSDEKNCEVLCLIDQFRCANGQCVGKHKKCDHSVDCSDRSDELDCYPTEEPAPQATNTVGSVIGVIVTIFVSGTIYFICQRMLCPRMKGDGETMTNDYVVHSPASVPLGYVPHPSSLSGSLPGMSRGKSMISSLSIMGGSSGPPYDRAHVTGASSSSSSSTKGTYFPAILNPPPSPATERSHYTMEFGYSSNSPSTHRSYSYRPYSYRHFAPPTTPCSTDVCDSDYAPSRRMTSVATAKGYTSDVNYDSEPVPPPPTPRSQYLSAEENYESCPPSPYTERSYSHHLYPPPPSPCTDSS

B1: Anti-LRP6-1 (antibody, mouse IgG2, V domains shown)
VH: EVQLVESGGGLVQSKGSLKLSCAASGFTFNTYAMNWVRQAPGKGLEWVGRIRSKYNNYVTYYGDSVKDRFTISRDDSQSMLYLQMNNLKTEDTAMYYCVRQGRGSYAMDYWGQGTSVTVSS
VL: NIVMTQSPKSMSMSVGERVTLSCKASENVGTYVSWYQQKPEQSPKLLIYGASNRYTGVPDRFIGSGSATDFTLTIRSVQAEDLADYHCGQSYSYPTFGAGTKLELKR
notes: also called mAb2F1; 2F1
As to B1, the IC50 of inhibition of LRP6 phosphorylation (Wnt3a-containing medium, RCEC, Western blot) in experiment [1] was 210 to 440 nM. The molecule further registered an IC50 of inhibition of [14C]thymidine incorporation into RCEC (proliferation, 1% O2) in experiment [1] of 500 to 2000 nM. Moreover, in the experiment with endogenous human LRP6, the “EC50 of inhibition of Wnt1-induced TOPFLASH activity (hTERT-RPE cells)” value was roughly 20 µg/mL. Further, the “EC50 of suppression of Wnt3A-induced Luciferase activity (TOPFLASH, hTERT-RPE cells)” value with endogenous human LRP6 was roughly 20 µg/mL. Also, the binding result is “binds” with endogenous mouse LRP6, “no binding” with VLDLR-N-His, “no binding” with LRP6E3E4-His and “no binding” in experiment [2].

The values are drawn from patent US20120045437A1 (BOARD OF REGENTS OF THE UNIVERSITY OF OKLAHOMA, published 2012).
